Literature values, collected in PMC10024700.

How the values were obtained:
[1] = target: Cadherin-23 EC1-2 (Mus musculus) (UniProt Q99PF4); assay: AUC
[2] = target: Protocadherin-15 EC1-2 (Mus musculus) (UniProt Q99PJ1); assay: SPR
[3] = target: Protocadherin-15 EC1-2 (Mus musculus) (UniProt Q99PJ1); assay: ITC

Cadherin-23 EC1-2 (from UniProt Q99PF4)
Kd [1]: 18000 nM
Kd [2]: 840 nM
Kd [3]: 2900 nM
